Results published in article PMC6755090.

T1: AsiA (bacteriophage T4, UniProt P32267 1-90)
T1 sequence: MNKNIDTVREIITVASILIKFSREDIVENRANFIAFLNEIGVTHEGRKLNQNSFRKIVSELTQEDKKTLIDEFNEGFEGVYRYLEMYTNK

B1: irrelevant DNA scaffold (FP) (dsDNA)
DNA 1: GCAAATGAGCAACA
DNA 2: TGTTGCTCATTTGC
B2: MotA (natural protein, bacteriophage T4, UniProt P22915 1-211, looked up)
chain: MSKVTYIIKASNDVLNEKTATILITIAKKDFITAAEVREVHPDLGNAVVNSNIGVLIKKGLVEKSGDGLIITGEAQDIISNAATLYAQENAPELLKKRATRKAREITSDMEEDKDLMLKLLDKNGFVLKKVEIYRSNYLAILEKRTNGIRNFEINNNGNMRIFGYKMMEHHIQKFTDIGMSCKIAKNGNVYLDIKRSAENIEAVITVASEL
notes: synthetic gene in pET21a; source: E. coli BL21(DE3), plasmid pET21a-MotA, purified (HiTrap Heparin, Mono S)
B3: AsiA (natural protein, bacteriophage T4)
chain: T1 sequence
notes: AsiA, anti-sigma 70 protein of bacteriophage T4; synthetic gene in pET28a; A6 is the C-terminal helix; also called AisA; N-hexahistidine-tagged AsiA; source: E. coli BL21(DE3), plasmid pET28a-NH-AsiA, purified (Ni-NTA, Mono Q)

Experiments:
AsiA = biological target: T1, AsiA; experiment: fluorescence polarization; comparable affinity to the promoter scaffold; KD only in figure; FP: 10 mM HEPES pH 7.5, 50 mM KCl, 25°C, 0.1 μM DNA, 0-100 μM AsiA; EMSA: 7 mM Tris-HCl and 50 mM Tris-Ac pH 7.9, 0.19 M KGlu, 5 mM MgAc2, 50 mM K-phosphate pH; conditions: protein: recombinant; tags: N-His6; label: 5' 6-FAM
Escherichia coli σ^70 = biological target: T2, Escherichia coli σ^70 (Escherichia coli, UniProt P00579 1-613); experiment: cryo-EM structure; σ appropriation complex assembled from σ^70, AsiA, RNAP core enzyme, MotA and a P_(uvsX) DNA scaffold, purified on Superose 6 in 10 mM HEPES pH 7.5, 50 mM KCl; 8 mM CHAPSO added; 3.79 Å; conditions: both partners purified
T2 construct: RNA polymerase sigma factor σ^70 (RpoD) of Escherichia coli; holds σR2, σR3, σR3.2 and σR4 (helices S1-S5); also called principle σ factor
T2 sequence (P00579 whole entry): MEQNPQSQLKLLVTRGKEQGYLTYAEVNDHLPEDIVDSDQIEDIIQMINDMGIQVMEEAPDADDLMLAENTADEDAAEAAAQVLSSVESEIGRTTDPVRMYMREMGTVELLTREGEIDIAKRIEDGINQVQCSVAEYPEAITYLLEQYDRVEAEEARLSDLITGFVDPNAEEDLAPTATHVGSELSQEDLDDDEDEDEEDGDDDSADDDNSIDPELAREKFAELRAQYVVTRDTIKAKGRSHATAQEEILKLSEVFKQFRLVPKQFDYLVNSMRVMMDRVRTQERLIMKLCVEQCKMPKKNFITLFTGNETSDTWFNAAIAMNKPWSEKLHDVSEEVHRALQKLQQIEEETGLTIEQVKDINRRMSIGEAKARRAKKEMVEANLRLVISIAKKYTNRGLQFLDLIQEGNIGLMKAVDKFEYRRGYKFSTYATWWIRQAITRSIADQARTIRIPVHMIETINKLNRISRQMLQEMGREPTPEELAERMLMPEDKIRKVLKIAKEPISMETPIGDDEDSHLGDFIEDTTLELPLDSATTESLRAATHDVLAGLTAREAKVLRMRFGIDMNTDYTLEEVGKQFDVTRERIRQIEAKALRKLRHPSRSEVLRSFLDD

Binder	binding result (AsiA)	binding result (Escherichia coli σ^70)
B1	binds	–
B2	–	binds
B3	–	binds
